Test results as given in patent US20240026011A1 (published 2024).

Tests used:
human HER2 on cells = human HER2 on cells (human, UniProt P04626 23-1255); assay: kinetic affinity (kon/koff); Pro51 format
cyno HER2 on cells = cyno HER2 on cells (cynomolgus monkey, UniProt A0A2K5WUT7 1-1225); assay: kinetic affinity (kon/koff); Pro51 format
human CA9 on cells = human CA9 on cells (human, UniProt Q16790 38-459); assay: affinity; Pro51 format
cyno CA9 on cells = cyno CA9 on cells (cyno, UniProt A0A2K5VQG9 38-447); assay: affinity; Pro51 format
cyno CA9 on cells, sequence (A0A2K5VQG9 entry or part of it): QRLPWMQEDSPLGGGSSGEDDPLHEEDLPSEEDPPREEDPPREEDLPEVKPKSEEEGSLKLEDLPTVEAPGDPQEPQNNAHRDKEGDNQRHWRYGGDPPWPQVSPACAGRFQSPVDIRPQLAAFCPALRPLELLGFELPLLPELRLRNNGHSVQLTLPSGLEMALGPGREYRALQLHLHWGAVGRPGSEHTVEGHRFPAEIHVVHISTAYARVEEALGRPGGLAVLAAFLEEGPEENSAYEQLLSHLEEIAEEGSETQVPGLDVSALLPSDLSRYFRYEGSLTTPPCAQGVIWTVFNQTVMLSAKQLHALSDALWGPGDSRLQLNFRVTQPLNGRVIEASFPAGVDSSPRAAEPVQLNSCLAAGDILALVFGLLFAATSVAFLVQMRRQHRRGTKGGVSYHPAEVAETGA

Binder | Kd (cyno HER2 on cells) | further results
1058 (Pro1037) (protein) QVQLQESGGGLVQPGGSLRLTCAASGRAISSYAISWFRQAPGEEREFVAAINWSGTHTNYADSVKGRFTISRDNVKNTVYLQMNSLKPEDTATYFCSRGWSVFDPDYRGQGTQVTVSS | 9.7 nM | Kd (human HER2 on cells): 8.6 nM
Pro1036 VIB1055 (bispecific antibody, V domains shown) VH: QVQLQESGGGLVQPGGSLRLTCEVSGRAISSYAISWFRQAPGEEREFVAAINWSGTHTNYADSVKGRFTISRDNVKNTVYLQMNSLKPEDTATYFCSRGWSVFDPDYRGQGTQVTVSS | 69.9 nM | –
Pro1038 VIB1059 (bispecific antibody, V domains shown) VH: QVQLQESGGGLVQPGGSLRLTCAASGRAISSYAISWFRQAPGEEREFVAAINWSGTHTDYADSVKGRFTISRDNAKNTVYLQMNSLKPEDTAVYFCSRGWSVFDPDYRGQGTQVTVSS | 85 nM | –
1121 (Pro1042) (protein) QVQLQESGGGLVQAGGSLRLSCAASGFIFSDYAMTWVRQAPGKGLEWVSSINWSGTHTNYADSVKGRFTISRDNAKKTLYLQMNSLKSEDTAVYYCARGWMVVPDSTRGQGTQVTVSS | 4.6 nM | –
h1139 (Pro1060) (protein) QVQLVESGGGVVRPGGSLRLSCAASGFTFDDYAMSWIRQAPGKEMEWVSGINWSGTHTRYADSVKGRFTISRDNAKNSLYLQMNSLRAEDTALYYCARGFAADSRSTRGQGTLVTVSS | 7.4 nM | –
h445 (Pro512) (antibody, V domains shown) VH: QVQLVESGGGLVKPGGSLRLSCAASGITFNLHAMRWYRRAPGKQRELVAYISARDWTNYADSVKGRFTISRDNAKNSLYLQMNSLRAEDTAVYYCNTDLVGEDYWGRGTLVTVSS | – | Kd (human CA9 on cells): 3.1 nM; Kd (cyno CA9 on cells): 4.9 nM
h476 (Pro510) (antibody, V domains shown) VH: QVQLVESGGGLVQPGGSLRLSCAASGNIFIINVMGWYRQAPGKQRELVATITNGGRTHYADSVKGRFTISRDNSKNTLYLQMNSLRAEDTAVYYCNANHIELGDYWGQGTLVTVSS | – | Kd (human CA9 on cells): 1.6 nM; Kd (cyno CA9 on cells): 1.2 nM
h456 (Pro509) (antibody, V domains shown) VH: QVQLVESGGGLVQPGGSLRLSCAASGSALIINAMGWYRQAPGKQRELVATVTRSGRTNYADSVKGRFTISRDNSKNTLYLQMNSLRAEDTAVYYCNVALWIADGEYDYWGQGTLVTVSS | – | Kd (human CA9 on cells): 0.7 nM; Kd (cyno CA9 on cells): 1.1 nM
1097 (Pro1041) (protein) QVQLQESGGGLVQPGGSLRLSCAASGFIFDDYAMTWVRQAPGKGLEWVSSINWSGTHTDYADSVKGRFTISRDNAKNTLYLQMNSLKSEDSAVYYCVKGWRHTDNYYAGVQGQGTQVTVSS | 4.3 nM | –
1092 (Pro1040) (protein) QVQLQESGGGLVQAGASLRLSCAASGFTFDDYALSWVRQAPGKGLEWVSSINWSGTHTDYADSVKGRFTISRDNAKNTLYLQMNSLKSEDSAVYYCVKGWRLTGGYYDSVQGQGTQVTVSS | 4.5 nM | –
Pro1044 VIB1156 (bispecific antibody, V domains shown) VH: QVQLQESGGGLVQAGGSLKVSCAASRNIGSNYAVGWFRQAPGKEREPVAALRWTGSIIGYDDSLRGRFTISKDDAKNTVYLQMNSLKPEDTGVYYCAARILDRSSYDYWGQGTQVTVSS | 9 nM | –

Second part, led by results:

Kd (cyno HER2 on cells) | Binder | further results
17 nM | Pro1045 VIB1159 (bispecific antibody, V domains shown) VH: QVQLQESGGGLVQAGGSLRLSCATSGRTFSSLAMGWFRQAPGKERELVAGISWSGSTTYYADSVKGRFAISRDNAKNTVYLQMNSLKPEDTAVYYCAARTSSIATIGREYDYWGQGTQVTVSS | –
37 nM | h1159 (Pro1062) (antibody, V domains shown) VH: QVQLLESGGGLVQPGGSLRLSCATSGRTFSSLAMGWFRQAPGKERELVAGISWSGSTTYYADSVKGRFAISRDNSKNTLYLQMNSLRAEDTAVYYCAARTSSIATIGREYDYWGQGTLVTVSS | –
6.7 nM | Pro1043 VIB1139 (bispecific antibody, V domains shown) VH: QVQLQESGGGLVQPGGSLRLSCAASGFTFDDYAMSWIRQAPGKEMEWVSGINWSGTHTRYADSVKGRFTISRDNAKNTLDLQMNSLISEDTAVYYCARGFAADSRSTRGQGTQVTVSS | –
8.5 nM | 1091 (Pro1039) (protein) QVQLQESGGGLVQPGGSLRLSCAASGFTFDDYAMSWVRQAPGKGLEWVSSINWSGTHTDYADSVKGRFTISRDNAKNTLYLQMNSLKSEDSAVYYCVKGWRLTGGYYDSVQGQGTQVTVSS | –
10.8 nM | 1160 (Pro1046) (antibody, V domains shown) VH: QVQLQESGGGLVQAGGSLRLSCAASGRTFSNERLGWFRQAPGKERELVAAIRWSGVIIGYADSVRGRFTISRDNAKSTVYLQMNSLRPEDTAVYFCAADRGVYGTWDYWGQGTQVTVSS | –
21.8 nM | humanized aHER2 sdAb h1162 (VHH) VHH: QVQLLESGGGLVQPGGSLRLSCAASGRPFSGNAMGWFRQAPGKEREFVAAISWSGDSTYYADSVKGRFTISRDNSKNTLYLQMNSLRAEDTAVYYCAATRSFYSRTYYTRPSDYNYWGPGTLVTVSS | –
21.2 nM | Pro1047 VIB1162 (bispecific antibody, V domains shown) VH: QVQLQESGGGLVQAGGSLRLSCAASGRPFSGNAMGWFRQAPGKEREFVAAISWSGDSTYYADSVKGRFTISRDNDENTAYLQMNSLKPEDTAVYYCAATRSFYSRTYYTRPSDYNYWGPGTQVTVSS | –
